According to patent publication US20250381255A1 (ANOKION, published 2025):
Each block holds one binder with its values, some of them ahead of it.

How the values were obtained:
[1] = target: T1, human asialoglycoprotein receptor 1 (ASGR1) extracellular domain (human, UniProt P07306 62-291); assay: apparent KD from biochemical characterisation; method not named for this value (Example 1 describes Octet BLI: IgG on AHC sensors, 100 nM ASGR1, 1:1 model)
T1 construct: The methods speak of 'human ASGR1-His'; The results paragraph says only 'ASGR1'; also called human ASGR1-His; ASGR1 ECD
T1 sequence: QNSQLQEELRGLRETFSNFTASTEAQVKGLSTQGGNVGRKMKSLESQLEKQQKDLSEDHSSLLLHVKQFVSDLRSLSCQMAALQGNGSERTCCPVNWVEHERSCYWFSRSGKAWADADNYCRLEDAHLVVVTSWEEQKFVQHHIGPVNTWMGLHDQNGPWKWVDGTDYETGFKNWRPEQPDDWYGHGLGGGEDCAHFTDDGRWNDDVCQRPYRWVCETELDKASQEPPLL

[2] = target: T1, human asialoglycoprotein receptor 1 …; assay: apparent KD from biochemical characterisation; method not named for this value (Example 1 describes Octet BLI: IgG on AHC sensors, 100 nM ASGR1, 1:1 model); mAb-60819
[3] = target: T1, human asialoglycoprotein receptor 1 …; assay: apparent KD from biochemical characterisation; method not named for this value (Example 1 describes Octet BLI: IgG on AHC sensors, 100 nM ASGR1, 1:1 model); mAb-60869
[4] = target: T1, human asialoglycoprotein receptor 1 …; assay: apparent KD from biochemical characterisation; method not named for this value (Example 1 describes Octet BLI: IgG on AHC sensors, 100 nM ASGR1, 1:1 model); mAb-60856

Kd [1]: ~3 nM
B1: mAb-60881 (antibody, V domains shown)
VH: QVQLQESGPGLVKPSETLSLTCAVSGYSISSGYYWGWIRQPPGKGLEWIGSIYHSGSTYYNPSLKSRVTISVDTSKNQFSLKLSSVTAADTAVYYCAREAGYPERGYGMDVWGQGTTVTVSS
VL: EIVMTQSPATLSVSPGERATLSCRASQSVSSNLAWYQQKPGQAPRLLIYGASTRATGIPARFSGSGSGTEFTLTISSLQSEDFAVYYCQQYFHHPFTFGGGTKVEIK
notes: Made as IgG

Kd [2]: 9.29 nM
B2: mAb-60819 (antibody, V domains shown)
VH: QVQLVQSGAEVKKPGSSVKVSCKASGGTFSNYAISWVRQAPGQGLEWMGGIIPIFGTANYAQKFQGRVTITADESTSTAYMELSSLRSEDTAVYYCAREARVAGTRPRGFDIWGQGTMVTVSS
VL: EIVLTQSPATLSLSPGERATLSCRASQSVSSYLAWYQQKPGQAPRLLIYDASNRATGIPARFSGSGSGTDFTLTISSLEPEDFAVYYCQQLNNFPPTFGGGTKVEIK

Kd [3]: 3.22 nM
B3: mAb-60869 (antibody, V domains shown)
VH: EVQLLESGGGLVQPGGSLRLSCAASGFTFSNYAMSWVRQAPGKGLEWVSAISGSGGSTYHADSVKGRFTISRDNSKNTLYLQMNSLRAEDTAVYYCARDAPYRGGHYFDLWGRGTLVTVSS
VL: EIVLTQSPATLSLSPGERATLSCRASQSVSSYLAWYQQKPGQAPRLLIYDASNRATGIPARFSGSGSGTDFTLTISSLEPEDFAVYYCQQLASWPPTFGGGTKVEIK
notes: also called anti-ASGR1 antibody mAb-60869

Kd [4]: 9.29 nM
B4: mAb-60856 (antibody, V domains shown)
VH: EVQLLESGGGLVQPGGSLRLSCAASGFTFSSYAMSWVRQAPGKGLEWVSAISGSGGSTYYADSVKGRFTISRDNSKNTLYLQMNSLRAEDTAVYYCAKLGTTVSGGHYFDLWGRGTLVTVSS
VL: EIVLTQSPATLSLSPGERATLSCRASQSVSSYLAWYQQKPGQAPRLLIYDASKRATGIPARFSGSGSGTDFTLTISSLEPEDFAVYYCQQDSNHPLTFGGGTKVEIK
notes: also called anti-ASGR1 antibody mAb-60856
